Test results: US20190016818A1, “ANTIBODIES AGAINST GLYPICAN-3 AND THEIR USES IN CANCER DIAGNOSIS AND TREATMENT” (LA JOLLA BIOLOGICS, INC., priority 2015, published 2019)

What was measured:
Hep3B hepatoma cells = test: Hep3B xenograft animal model with GES1 IgG; assay type: in vivo, NOD-SCID mice; details: 200 mg/Kg sorafenib orally
Description: GES1 scFv antibody was humanized to obtain humanized IgG antibody (GES1 humanized scFv antibody) and a xenograft animal model was conducted. Hep3B hepatoma cells were cloned to NOD-SCID mice. After the tumors were generated, 1 mg/Kg and 5 mg/Kg of GES1 IgG were i.v. injected into the mice once a week. Another group of the mice were orally administered with 200 mg/Kg sorafenic.

[1] = tested on: HepG2 and HuH-7 ectopic xenografts; details: cited from earlier work
HepG2 cells [2] = test: Proliferation (MTT) assay; assay type: cell-based, human
Description: A volume of 100 μl DMEM medium containing 5×10^3 HepG2, Hep3B, wherein cells were seeded onto 96-well plates. […] Thereafter, 10 μl of 3-[4,5-dimethylthiazol-2-yl]-2,5-diphenyltetrazolium bromide (MTT; 10 mg/ml) were added to determine the number of surviving cells. The supernatant was removed after 3 hr of incubation, and formazan crystals that had been developed were dissolved by adding of 100 μl acidified 2-propanol/well (0.04 N HCl). Extinction was measured by an automated microtiter plate reader at 540 nm. Unrelated anti-snake venom antibodies (neg) were included in control experiments. […] HepG2 cells were cultured in the medium containing G5S1, GES1, GES6 or control scFv antibodies at final concentrations of 0.1 μM for 1-6 days.

[3] = tested on: GPC3-positive Hep3B, HepG2 and HepJ5 cells; test: Flow cytometry binding analysis; assay type: cell-based, human; details: 100 μg/ml
Description: A total of 2×10^6 HepG2, Hep3B, cells were harvested and fixed with 2% paraformaldehyde as described previously with minor modification (Leu et al., 2010). The GPC3 molecule expressed in these […] cells were detected by adding purified chicken scFv antibodies, followed by mouse anti-HA (1:200) and FITC-conjugated goat anti-mouse antibodies (1:200). The results were analyzed using the FACScan flow cytometer Negative controls were performed by omitting the primary scFv antibodies, while positive controls were performed using commercial polyclonal anti-human GPC3 antibodies (1:200) instead of home-made chicken anti-GPC3 scFv antibodies. […] The partially purified scFv antibodies were examined for their binding activity to GPC3-positive Hep3B, HepG2 and HepJ5 cells.

[4] = tested on: GPC3-positive HepG2 cells and Hep 3B cells; test: Immunofluorescence staining binding analysis; assay type: cell-based, human; details: Hep 3B cells (FIG. 9A) and Hep G2 cells (FIG. 9B)
Description: HepG2, Hep3B, cells (2×10^5 cells/ml) were seeded on cover glass and fixed by incubating with equal volume of 8% freshly prepared ice-cold paraformaldehyde on ice for 15 min. After fixing, the cells were dehydrated in a sequential treatment of 70%, 95% and 99% methanol and rehydrated with 95% and 70% methanol. The slides were then overlaid with blocking buffer (1% BSA in 1×PBS) at room temperature (RT) for 1 hr. Following washing with 1×PBS, specific monoclonal mouse or scFv antibodies were incubated with cells at RT for one additional hr. Finally, their binding to GPC3 protein was detected by mouse anti-HA antibodies, followed by FITC-conjugated goat anti-mouse antibodies. Nuclei were counterstained with PI solution in parallel. The slides were examined using a Confocal Spectral Microscope Imaging System (TCS SP5, Leica). […] The partially purified scFv antibodies were examined for their binding activity to GPC3-positive HepG2 cells and Hep 3B cells.

GPC3 in Hep3B cells = target: T1, GPC3 in Hep3B cells (Homo sapiens, UniProt P51654); test: Immunoprecipitation assay, Hep3B cell lysate; assay type: binding; details: Hep3B total cell lysate; data very preliminary
T1 construct: endogenous in cells; host or cells: Hep3B
Description: (§1) Antibody beads were prepared by covalently linking 100 ul of Ni-NTA Sepharose (Amersham Biosciences) and 1 mg of anti-GPC3 scFv antibodies with 20 mM dimethyl pimelimidate. Then, 500 ul of HepG2 and Hep3B cell lysates were be mixed with 25 ul of antibody beads and incubated for 2 hr at 4° C. After extensive washing with PBST, antibody beads will be resuspended in 50 ul of SDS-PAGE loading buffer, boiled for 5 min, and subsequently subjected to western blotting analysis. […] The total cell lysates of Hep3B and HepG2 were incubated with a mixture of his-beads and G5S1, GES1, GES6 or 70SC control scFv antibodies individually. After washing, the his-beads complex was subjected to SDS-PAGE and western blot analysis. […] By contrast, the protein in HepG2 cells was precipitated by GES1, G5S1 and GES6 scFv antibodies. However, the data were very preliminary and need further verification.

HepG2 cells [5] = test: Soft agar colony formation assay, HepG2; assay type: cell-based, human; details: 0.5 μM scFv, 4 weeks
Description: (§2) To determine the clonogenicity of HepG2, Hep3B, cells, 5×10^5 cells were pre-incubated in 2 ml DMEM medium containing anti-GPC3 antibodies at concentrations of 0.5-5 uM for 48 hr. Thereafter, cells were harvested, counted and transferred into semi-solid medium supplemented with 0.8% DMEM-methylcellulose and 30% FBS. Finally, 1 ml of the semi-solid medium containing 5×10^3 individual type of cell was plated onto 3.5 cm Petri-dishes. Triplicated Petri-dishes per treatment protocol will be cultivated for 5-7 days under standard conditions. Colony formation (clusters of >30 cells) will be visualized by staining with crystal violet and scored by an inverted microscope. […] The effect of GPC3 scFv on anchorage independent growth of HepG2 and Hep3B cells was explored. Hepatoma cells were treated with 0.5 μM of G5S1, GES1 or α-RTS6 (neg) scFv antibodies for 1 hr and suspended in medium containing 0.4% low melting agarose and plated onto solidified 0.9% agarose in medium at a density of 1×10^5 cells per dish. After incubating for 4 weeks, the number of colonies was counted and recorded. […] The exact reason for the distinct inhibition on 2 cell lines is presently not known.

Hep3B cells [6] = test: Soft agar colony formation assay, Hep3B; assay type: cell-based, human; details: 0.5 μM scFv, 4 weeks
Description: as §2

HepG2 cells [7] = test: Cell cycle analysis (propidium iodide, FACS); assay type: cell-based, human
Description: Fixed cells were stained with propidium iodide and analyzed by FACS. The cell-cycle distribution of different phases was analyzed with FlowJo v 9.0. FIGS. 12 A, B and C show the results of cell cycle analysis. After treated with G5S1, GES1 or α-RTS6 (neg) scFv antibodies for 48 hrs, the adherent HepG2 cells were detached, washed, and exposed to 70% ethanol on 4° C. overnight. After washing, cells were incubated with […] propidium iodide and […] RNaseA. FACS was carried out and data were statistically analyzed by FlowJo software.

Hep3B cells [8] = test: Cell migration (wounded monolayer) assay; assay type: cell-based, human; details: Hep3B monolayers wounded, 0.5 uM scFv, 24 hr
Description: For cell migration assays, 1×10^3 cells were incubated with anti-GPC3 antibodies at concentrations of 1 to 200 μg/ml for 48 hr before being transferred into a transwell migration system. The cells were plated onto a polycarbonate filter membrane with a pore size of 8 μm (upper layer) and incubated for different time interval at 37° C. in 5% CO2 incubator. Serum free medium containing 0.5 mM EDTA was used for washing off the cells from the lower part of the membrane to lower wells. The cells in the lower wells were collected with centrifugation at 3000 g for 5 min and perform direct cell counting under microscope. The mean growth rate (MGR) of cells after migration through the polycarbonate filter was determined by the equation: MGR=log 2 Nt−log2 N0/t, with N0 as initial cell number, Nt as final cell number and t as time period of cell incubation in days. […] To explore whether the GPC3 protein is essential for cell migration, Hep3B cells were cultured until confluence. The monolayers were wounded, cultured with medium containing 0.5 uM of G5 S1 or GES1 and two controls (NC-70sc or NC-spE) scFv antibodies and analyzed after 24, hr. […] The effect of G5S1 scFv was minimal and reached to the basal level obtained in medium without any scFv antibody.

Hep3B xenograft = test: Tumor xenograft model, Ki-67 immunohistochemistry of tumor tissue; assay type: in vivo, NOD-SCID mice; details: 800 ug/mouse/per time i.v.; compared to untreated groups
Description: NOD-SCID mice were used. Briefly, 4-week-old female […] mice were injected subcutaneously with 4×10^6 of HepG2 and Hep3B cancer cells at a single dorsal site. At day 14, tumor-bearing mice were randomized into experimental groups (5 per group) and treated with anti-GPC3 antibodies and positive control with sorafenib accordingly. 400 ug or 800 ug of antibodies were given through intravenous (i.v.) injection every 3 days for 3 weeks. Tumor size was measured every 2 days with calipers until animals are sacrificed. At the time of sacrifice, tumors were dissected and weighted.
Tissue sections from xenograft tumor tissues in mice were de-waxed in xylene and rehydrated through graded alcohols. The antigen retrieval was carried out by heating the rehydrated tissues in 10 mM sodium citrate (pH 6.0) for 20 min. After washing with buffer containing 10 mM Tris-HCl (pH 7.4) and 150 mM sodium chloride, the sections were treated with 3% hydrogen peroxide for 5 min. Anti-Ki-67 antibodies (commercial polyclonal antibody) was be applied for 1 hr at room temperature. Optimal horseradish peroxidase-conjugated secondary antibodies and diaminobenzidine were added sequentially to detect the Ki-67 proliferation marker expression in the examined tissues. The slides were counterstained with GM hematoxylin solution. […]

GPC3 [9] = target: T2, GPC3 (Homo sapiens, UniProt P51654); test: Western blot of GPC3 extracellular domain protein and hepatoma cell lysates; assay type: binding; design: purchased; details: commercial GPC3 extracellular domain protein under reducing condition; lysates of hepatoma cell lines
Description: (§3) Nitrocellulose membranes were blocked with 5% skim milk in TBST for 1 hr. Polyclonal goat anti-chicken IgY light chain antibodies were added at 1:5000 dilution and incubated for an additional hr. The membranes were washed with TBST three times and the bound antibodies were detected by adding horseradish peroxidase (HRP)-conjugated donkey anti-goat Ig antibodies at 1:3000 dilutions. After three washings, the membranes were developed with diaminobenzidine (DAB) substrate until the desired intensity was reached. The IgY antibodies or the E. coli-expressed scFv antibodies were purified and incubated with the purified GPC3 protein or cellular lysates of GPC3-positive HepG2 and Hep3B cells immobilized on nitrocellulose membranes or ELISA plate wells. Their binding was subsequently detected by adding goat anti-mouse IgG or anti-chicken IgY light chain followed by HRP-conjugated donkey anti-goat Ig antibodies as described above.

GPC3 in HepG2 cells = GPC3 in HepG2 cells (Homo sapiens, UniProt P51654); test: Immunoprecipitation assay, HepG2 cell lysate; assay type: binding; design: endogenous in cells; host or cells: HepG2; details: HepG2 total cell lysate; data very preliminary
Description: as §1

GPC3 [10] = target: T2, GPC3; test: ELISA binding to commercially available GPC3 immobilized on plate wells; design: analysis of commercial GPC3_extracellular domain (ECD) and truncated (C185) proteins; purchased; details: partially purified scFv
Description: as §3
HepG2, Hep3B, cells (2×10^5 cells/ml) was seeded on cover glass and fixed by incubating with equal volume of 8% freshly prepared ice-cold paraformaldehyde on ice for 15 min. After fixing, the cells were dehydrated in a sequential treatment of 70%, 95% and 99% methanol and rehydrated with 95% and 70% methanol. […] Finally, their binding to GPC3 protein was detected by mouse anti-HA antibodies, followed by FITC-conjugated goat anti-mouse antibodies. […]

CNC(=O)c1cc(Oc2ccc(NC(=O)Nc3ccc(Cl)c(C(F)(F)F)c3)cc2)ccn1 [sorafenib]
tumor growth inhibition (Hep3B hepatoma cells): 48.8%

hGC33: Humanized GC33
efficacy against the HepG2 xenograft relative to GC33 [1]: as effective as GC33

B1: GES1: chicken anti-GPC3 scFv antibody; heavy chain SEQ ID NO: 30, light chain SEQ ID NO: 38 (antibody, V domains shown)
VH: EVQLLESGGGLVQPGGSLRLSCAASGFTFSSFNMFWVRQAPGKGLEWVSWISSTGSRTKYADSVKGRFTISRDNSKNTLYLQMNSLRAEDTATYYCAKSASRGAGRIDAWGRGTLVTVSS
VL: ALTQPPSASGSPGQSITISCTGTGGSYGWYQQHAGKAPKLVIYNNNKRPSGVPDRFSGSKSGNTASLTVSGLQTDDEAVYYCGSRDSSYFGIFGGGTKLTVL
modifications: scFv linker
inhibition of cell proliferation, concentration dependence (HepG2 cells [2]; 0, 0.5, 1, 2, 4 and 8 μM for 3 days): inhibited the cell proliferation in a dosage-dependent manner
suppression on cell proliferation (HepG2 cells [2]; HepG2 cells, 0.1 μM, day 6): approximately 60%
binding signal to hepatoma cells (flow cytometry) [3]: various but significant binding signal
binding signal to cell surface (immunofluorescence) [4]: various but significant binding signal
precipitation of protein with predicted molecular weight of GPC3 (GPC3 in Hep3B cells): precipitated
inhibitory effect on colony formation (HepG2 cells [5]): significant inhibitory effort on colony formation
inhibitory effect on colony formation (Hep3B cells [6]): not as obvious
cell cycle arrest (HepG2 cells [7]; 0.5 μM, 48 hrs): arrested in G1 phase
cell population in subG1 stage (HepG2 cells [7]; treated 48 hrs): 28.8%
effect on cell migration (Hep3B cells [8]): partial inhibitory effect
Ki-67 expression in tumor sections (Hep3B xenograft): reduced level of Ki-67 expression
fragment of GPC3 identified on western blot (GPC3 [9]): can identify C-terminus fragment of GPC3 and GPC3 in cellular lysates
precipitation of protein with predicted molecular weight of GPC3 (GPC3 in HepG2 cells): precipitated
binding activity to GPC3 on ELISA (GPC3 [10]): reacted significantly with GPC3
